Target: HLA-A*02:01 (Homo sapiens, UniProt P04439, D140Y/D185E/D98H/E176V/E277Q/G131W/G231S/I119V/I121R/I166T/I218V/L300P/L318F/N151K/N90K/P208A/P217A/Q86G/Q94H/R138H/R169H/T345S)
Assay: MHC binding assay (UV-ligand exchange, ELISA, peptide exchange yield)
Details: binding of HLA-class I restricted peptides to HLA-A*02:01
Text: Candidate peptides for T cell based therapies according to the present invention were further tested for their MHC binding capacity (affinity). The individual peptide-MHC complexes were produced by UV-ligand exchange, where a UV-sensitive peptide is cleaved upon UV-irradiation, and exchanged with the peptide of interest as analyzed. Only peptide candidates that can effectively bind and stabilize the peptide-receptive MHC molecules prevent dissociation of the MHC complexes. To determine the yield of the exchange reaction, an ELISA was performed based on the detection of the light chain ([…]) of stabilized MHC complexes. The assay was performed as generally described in Rodenko et al. (Rodenko et al., 2006).
96 well MAXISorp plates (NUNC) were coated over night with 2-ug/ml streptavidin in PBS at room temperature, washed 4× and blocked for 1 h at 37° C. in 2% BSA containing blocking buffer. […] Peptide-MHC monomers of the UV-exchange reaction were diluted 100 fold in blocking buffer. Samples were incubated for 1 h at 37° C., washed four times, incubated with 2-ug/ml HRP conjugated anti-β2m for 1 h at 37° C., washed again and detected with TMB solution that is stopped with […]. Absorption was measured at 450 nm. Candidate peptides that show a high exchange yield (preferably higher than 50%, most preferred higher than 75%) are generally preferred for a generation and production of antibodies or fragments thereof, and/or T cell receptors or fragments thereof, as they show sufficient avidity to the MHC molecules and prevent dissociation of the MHC complexes.

Substance: 1 (SLMEPPAVLLL; listed as Homo sapiens) [compound 1]
- Peptide exchange (MHC class I binding score, peptide exchange yield): ″+++″ (≥50% = +++)

Substance: 4 (GIMEHITKI; listed as Homo sapiens) [compound 4]
- Peptide exchange (MHC class I binding score, peptide exchange yield): ″++++″ (≥75% = ++++)

Substance: 5 (HLTEVYPEL; listed as Homo sapiens) [compound 5]
- Peptide exchange (MHC class I binding score, peptide exchange yield): ″+++″ (≥50% = +++)

Substance: 6 (VLVSDGVHSV; listed as Homo sapiens) [compound 6]
- Peptide exchange (MHC class I binding score, peptide exchange yield): ″+++″ (≥50% = +++)

Substance: 7 (SLVGLLLYL; listed as Homo sapiens) [compound 7]
- Peptide exchange (MHC class I binding score, peptide exchange yield): ″++++″ (≥75% = ++++)

Substance: 9 (GAAKDLPGV; listed as Homo sapiens) [compound 9]
- Peptide exchange (MHC class I binding score, peptide exchange yield): ″++″ (≥20% = ++)

Substance: 10 (FLATFPLAAV; listed as Homo sapiens) [compound 10]
- Peptide exchange (MHC class I binding score, peptide exchange yield): ″++++″ (≥75% = ++++)

Substance: 12 (SLWPDPMEV; listed as Homo sapiens) [compound 12]
- Peptide exchange (MHC class I binding score, peptide exchange yield): ″+++″ (≥50% = +++)

Substance: 13 (YLMDESLNL; listed as Homo sapiens) [compound 13]
- Peptide exchange (MHC class I binding score, peptide exchange yield): ″+++″ (≥50% = +++)

Substance: 14 (AAYGGLNEKSFV; listed as Homo sapiens) [compound 14]
- Peptide exchange (MHC class I binding score, peptide exchange yield): ″+++″ (≥50% = +++)

Substance: 15 (VLLTFKIFL; listed as Homo sapiens) [compound 15]
- Peptide exchange (MHC class I binding score, peptide exchange yield): ″++″ (≥20% = ++)

Substance: 16 (VLFQGQASL; listed as Homo sapiens) [compound 16]
- Peptide exchange (MHC class I binding score, peptide exchange yield): ″+++″ (≥50% = +++)

Substance: 17 (GLLPGDRLVSV; listed as Homo sapiens) [compound 17]
- Peptide exchange (MHC class I binding score, peptide exchange yield): ″+++″ (≥50% = +++)

Substance: 18 (YLVAKLVEV; listed as Homo sapiens) [compound 18]
- Peptide exchange (MHC class I binding score, peptide exchange yield): ″++″ (≥20% = ++)

Substance: 19 (FMVDNEAIYDI; listed as Homo sapiens) [compound 19]
- Peptide exchange (MHC class I binding score, peptide exchange yield): ″++++″ (≥75% = ++++)

Substance: 20 (RMIEYFIDV; listed as Homo sapiens) [compound 20]
- Peptide exchange (MHC class I binding score, peptide exchange yield): ″+++″ (≥50% = +++)

Substance: 21 (VLDELDMEL; listed as Homo sapiens) [compound 21]
- Peptide exchange (MHC class I binding score, peptide exchange yield): ″++″ (≥20% = ++)

Substance: 22 (IMEENPGIFAV; listed as Homo sapiens) [compound 22]
- Peptide exchange (MHC class I binding score, peptide exchange yield): ″+++″ (≥50% = +++)

Substance: 23 (VLLDDIFAQL; listed as Homo sapiens) [compound 23]
- Peptide exchange (MHC class I binding score, peptide exchange yield): ″+++″ (≥50% = +++)

Substance: 24 (SLSDGLEEV; listed as Homo sapiens) [compound 24]
- Peptide exchange (MHC class I binding score, peptide exchange yield): ″++″ (≥20% = ++)

Substance: 25 (FLPDEPYIKV; listed as Homo sapiens) [compound 25]
- Peptide exchange (MHC class I binding score, peptide exchange yield): ″+++″ (≥50% = +++)

Substance: 26 (ALLELAEEL; listed as Homo sapiens) [compound 26]
- Peptide exchange (MHC class I binding score, peptide exchange yield): ″+++″ (≥50% = +++)

Substance: 27 (ILADIVISA; listed as Homo sapiens) [compound 27]
- Peptide exchange (MHC class I binding score, peptide exchange yield): ″+++″ (≥50% = +++)

Substance: 28 (QLLDETSAITL; listed as Homo sapiens) [compound 28]
- Peptide exchange (MHC class I binding score, peptide exchange yield): ″+++″ (≥50% = +++)

Substance: 29 (KMLGIPISNILMV; listed as Homo sapiens) [compound 29]
- Peptide exchange (MHC class I binding score, peptide exchange yield): ″+++″ (≥50% = +++)

Substance: 30 (LILDWVPYI; listed as Homo sapiens) [compound 30]
- Peptide exchange (MHC class I binding score, peptide exchange yield): ″+++″ (≥50% = +++)

Substance: 31 (YLAPELFVNV; listed as Homo sapiens) [compound 31]
- Peptide exchange (MHC class I binding score, peptide exchange yield): ″++″ (≥20% = ++)

Substance: 32 (KLDDLTQDLTV; listed as Homo sapiens) [compound 32]
- Peptide exchange (MHC class I binding score, peptide exchange yield): ″++″ (≥20% = ++)

Substance: 33 (VLLSLLEKV; listed as Homo sapiens) [compound 33]
- Peptide exchange (MHC class I binding score, peptide exchange yield): ″++″ (≥20% = ++)

Substance: 34 (ILVEADSLWVV; listed as Homo sapiens) [compound 34]
- Peptide exchange (MHC class I binding score, peptide exchange yield): ″+++″ (≥50% = +++)

Substance: 35 (KINDTIYEV; listed as Homo sapiens) [compound 35]
- Peptide exchange (MHC class I binding score, peptide exchange yield): ″+++″ (≥50% = +++)

Substance: 39 (SVAPNLPAV; listed as Homo sapiens) [compound 39]
- Peptide exchange (MHC class I binding score, peptide exchange yield): ″+++″ (≥50% = +++)

Substance: 40 (TLLVKVFSV; listed as Homo sapiens) [compound 40]
- Peptide exchange (MHC class I binding score, peptide exchange yield): ″+++″ (≥50% = +++)

Substance: 41 (SLMPHIPGL; listed as Homo sapiens) [compound 41]
- Peptide exchange (MHC class I binding score, peptide exchange yield): ″+++″ (≥50% = +++)

Substance: 42 (VLLQKIVSA; listed as Homo sapiens) [compound 42]
- Peptide exchange (MHC class I binding score, peptide exchange yield): ″+++″ (≥50% = +++)

Substance: 43 (VLSSLEINI; listed as Homo sapiens) [compound 43]
- Peptide exchange (MHC class I binding score, peptide exchange yield): ″++″ (≥20% = ++)

Substance: 44 (ILDPISSGFLL; listed as Homo sapiens) [compound 44]
- Peptide exchange (MHC class I binding score, peptide exchange yield): ″++″ (≥20% = ++)

Substance: 45 (SLWQDIPDV; listed as Homo sapiens) [compound 45]
- Peptide exchange (MHC class I binding score, peptide exchange yield): ″+++″ (≥50% = +++)

Substance: 46 (ILTEENIHL; listed as Homo sapiens) [compound 46]
- Peptide exchange (MHC class I binding score, peptide exchange yield): ″+++″ (≥50% = +++)

Substance: 47 (ILLSVPLLVV; listed as Homo sapiens) [compound 47]
- Peptide exchange (MHC class I binding score, peptide exchange yield): ″++″ (≥20% = ++)

Substance: 49 (YLPAVFEEV; listed as Homo sapiens) [compound 49]
- Peptide exchange (MHC class I binding score, peptide exchange yield): ″+++″ (≥50% = +++)

Substance: 50 (SLSELEALM; listed as Homo sapiens) [compound 50]
- Peptide exchange (MHC class I binding score, peptide exchange yield): ″+++″ (≥50% = +++)

Substance: 51 (LLPDLEFYV; listed as Homo sapiens) [compound 51]
- Peptide exchange (MHC class I binding score, peptide exchange yield): ″++++″ (≥75% = ++++)

Substance: 52 (FLLAHGLGFLL; listed as Homo sapiens) [compound 52]
- Peptide exchange (MHC class I binding score, peptide exchange yield): ″++++″ (≥75% = ++++)

Substance: 53 (KMIETDILQKV; listed as Homo sapiens) [compound 53]
- Peptide exchange (MHC class I binding score, peptide exchange yield): ″++++″ (≥75% = ++++)

Substance: 54 (SLLEQGKEPWMV; listed as Homo sapiens) [compound 54]
- Peptide exchange (MHC class I binding score, peptide exchange yield): ″+++″ (≥50% = +++)

Substance: 55 (SLLDLETLSL; listed as Homo sapiens) [compound 55]
- Peptide exchange (MHC class I binding score, peptide exchange yield): ″++++″ (≥75% = ++++)

Substance: 57 (TLAELQPPVQL; listed as Homo sapiens) [compound 57]
- Peptide exchange (MHC class I binding score, peptide exchange yield): ″+++″ (≥50% = +++)

Substance: 59 (IMEDIILTL; listed as Homo sapiens) [compound 59]
- Peptide exchange (MHC class I binding score, peptide exchange yield): ″+++″ (≥50% = +++)

Substance: 60 (SLTIDGIYYV; listed as Homo sapiens) [compound 60]
- Peptide exchange (MHC class I binding score, peptide exchange yield): ″++++″ (≥75% = ++++)

Substance: 61 (FLQGYQLHL; listed as Homo sapiens) [compound 61]
- Peptide exchange (MHC class I binding score, peptide exchange yield): ″++++″ (≥75% = ++++)

Substance: 62 (VLLDVSAGQLLM; listed as Homo sapiens) [compound 62]
- Peptide exchange (MHC class I binding score, peptide exchange yield): ″++++″ (≥75% = ++++)

Substance: 63 (YLLPSGGSVTL; listed as Homo sapiens) [compound 63]
- Peptide exchange (MHC class I binding score, peptide exchange yield): ″++″ (≥20% = ++)

Substance: 64 (YAAPGGLIGV; listed as Homo sapiens) [compound 64]
- Peptide exchange (MHC class I binding score, peptide exchange yield): ″++″ (≥20% = ++)

Substance: 66 (FLDENIGGVAV; listed as Homo sapiens) [compound 66]
- Peptide exchange (MHC class I binding score, peptide exchange yield): ″+++″ (≥50% = +++)

Substance: 67 (TLLAEALVTV; listed as Homo sapiens) [compound 67]
- Peptide exchange (MHC class I binding score, peptide exchange yield): ″+++″ (≥50% = +++)

Substance: 68 (SLMELPRGLFL; listed as Homo sapiens) [compound 68]
- Peptide exchange (MHC class I binding score, peptide exchange yield): ″++++″ (≥75% = ++++)

Substance: 69 (FQLDPSSGVLVTV; listed as Homo sapiens) [compound 69]
- Peptide exchange (MHC class I binding score, peptide exchange yield): ″+++″ (≥50% = +++)

Substance: 70 (GLLDYPVGV; listed as Homo sapiens) [compound 70]
- Peptide exchange (MHC class I binding score, peptide exchange yield): ″+++″ (≥50% = +++)

Substance: 71 (GILARIASV; listed as Homo sapiens) [compound 71]
- Peptide exchange (MHC class I binding score, peptide exchange yield): ″+++″ (≥50% = +++)

Substance: 72 (SLLELDGINL; listed as Homo sapiens) [compound 72]
- Peptide exchange (MHC class I binding score, peptide exchange yield): ″+++″ (≥50% = +++)

Substance: 73 (NIFDLQIYV; listed as Homo sapiens) [compound 73]
- Peptide exchange (MHC class I binding score, peptide exchange yield): ″+++″ (≥50% = +++)

Source: patent US10227388B2, “Peptides and combination of peptides for use in immunotherapy against non-small cell lung cancer and other cancers” (immatics biotechnologies GmbH, priority 2015, dated 2019)
